Data as given in PMC4018492 (Genes & Development, 2014).
Each block holds one binder with its values, some of them ahead of it.

Assays:
[1] = target: T1, WDR5_(23–334) (human, UniProt P61964 23-334); test: SEC
[2] = target: 6xHis-WDR5 (residues 23–334) (human, UniProt P61964 23-334); test: pull-down
[3] = target: T1, WDR5_(23–334); test: ITC

binding result [1]: binds
B1: KANSL2_(381–492) (domain or fragment)
chain: DDLEAGPMDLYLSAAELQPTESLPLEFSDDLDVVGDGMQCPPSPLLFDPSLTLEDHLVKEIAEDPVDILGQMQMAGDGCRSQGSRNSEKASAPLSQSGLATANGKPEPTSIS

binding result [2]: binds
B2: KANSL1_(537–773) (domain or fragment)
chain: KSCGALRPVNGVINTLQPVLADHIPGDSSDAEEQLHKKQRLNLVSSSSDGTCVAARTRPVLSCKKRRLVRPNSIVPLSKKVHRNSTIRPGCDVNPSCALCGSGSINTMPPEIHYEAPLLERLSQLDSCVHPVLAFPDDVPTSLHFQSMLKSQWQNKPFDKIKPPKKLSLKHRAPMPGSLPDSARKDRHKLVSSFLTTAKLSHHQTRPDRTHRQHLDDVGAVPMVERVTAPKAERLLN

Kd [3]: 180 nM
Binder: DGTCVAARTRPVLSY [KANSL1 WIN motif-containing peptide (585-DGTCVAARTRPVLS-598-Y)]
